± gives the standard deviation of the averaged measurements.
Tested on: ATP
Test: switch fluorescence ratio, 500 uM ATP over buffer (Cy3 cluster intensity, sum of 5 cycles each) (fold (ratio)); higher = stronger signal-on switching upon ATP binding; sequences stand for … in TCGTCGGCAGCGTCAGATGTGTATAAGAGACAGTTTTTTTTTTTTTTTTTTTTTTTTT…TC
Details: aptamer strand: ATP DNA aptamer (quencher-CACCTGGGGGAGTATTGCGGAGGAAGG + anchor), 100 nM annealed; ATP concentration: 500 uM
Procedure, shortened: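 The quencher-labelled ATP aptamer, at 100 nM, was annealed to Cy3-labelled switching-strand clusters on a modified Illumina MiSeq flow-cell. The clusters were imaged in selection buffer, then after 15 min with 500 uM ATP at 22 °C, and this buffer/ATP cycle ran five times with NaOH stripping and re-annealing between runs. Per-cluster fluorescence ratios, summed target-cycle over summed buffer-cycle Cy3 intensity, were averaged per switch-domain sequence. Clusters outside 100-1000 RFU were excluded.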
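Note: ATP exposure 15 min at 22 °C before imaging.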

Sequence | switch fluorescence ratio
ATTCATTTTA | 0.999 ± 0.034
ATTCCATTTG | 1.03 ± 0.05
ATTCCGGGCT | 1.05 ± 0.031
ATTCCGGTCT | 0.978 ± 0.011
ATTCCTAACA | 1.008 ± 0.0089
ATTCCTAGGT | 1.33 ± 0.45
ATTCCTCTAG | 1.318 ± 0.0041
ATTCCTGGGA | 1.03 ± 0.018
ATTCCTGGGC | 1.03 ± 0.027
ATTCCTTTGT | 1.01 ± 0.026
ATTCGATATG | 0.997 ± 0.011
ATTCGCTTTT | 1 ± 0.042
ATTCGGGGAC | 1.058 ± 0.009
ATTCGGGGTG | 1.05 ± 0.11
ATTCGGGTTG | 0.985 ± 0.029
ATTCGTATGT | 1.03 ± 0.03
ATTCGTGGGG | 0.97 ± 0.032
ATTCTAACGA | 1.032 ± 0.0036
ATTCTACTGA | 1.06 ± 0.062
ATTCTACTTA | 1.01 ± 0.018
ATTCTCGTGC | 1.012 ± 0.0074
ATTCTGACAC | 1.07 ± 0.028
ATTCTGGGGG | 1.04 ± 0.048
ATTCTGTACG | 1.05 ± 0.023
ATTCTGTCGT | 1 ± 0.021
ATTCTGTGGT | 0.97 ± 0.019

Sequence | switch fluorescence ratio
ATTCTTAATG | 1.01 ± 0.021
ATTCTTTGCC | 1.003 ± 0.006
ATTGAAGGGT | 0.981 ± 0.034
ATTGAATATT | 0.9935 ± 0.0015
ATTGAATCAT | 1.005 ± 0.0033
ATTGAATTAA | 1.04 ± 0.02
ATTGAATTGT | 0.991 ± 0.037
ATTGAGCCTG | 0.991 ± 0.022
ATTGAGGAGA | 0.999 ± 0.033
ATTGAGGCAG | 0.9824 ± 0.0028
ATTGAGGTTT | 0.992 ± 0.022
ATTGAGTTCT | 1 ± 0.012
ATTGATATGG | 0.981 ± 0.04
ATTGATCGAT | 1.02 ± 0.035
ATTGATGT | 1.0234 ± 0.00096
ATTGATTAAC | 1.013 ± 0.0043
ATTGATTAGA | 0.99 ± 0.043
ATTGATTC | 0.9868 ± 0.0031
ATTGATTGTG | 0.983 ± 0.026
ATTGATTTGC | 0.997 ± 0.058
ATTGCATAAT | 1.06 ± 0.078
ATTGCATTTT | 1.28 ± 0.43
ATTGCCCGCG | 1.0228 ± 0.00058
ATTGCCGTCA | 0.998 ± 0.024
ATTGCGGGCA | 0.982 ± 0.035
ATTGCGTTAT | 1.03 ± 0.018

Sequence | switch fluorescence ratio
ATTGCTGGGT | 0.985 ± 0.033
ATTGCTGTAC | 1.56 ± 0.048
ATTGCTGTTC | 1.03 ± 0.037
ATTGCTTTGG | 0.9976 ± 0.0015
ATTGGAAAGG | 0.985 ± 0.031
ATTGGAAGTT | 0.997 ± 0.014
ATTGGAATGC | 1.26 ± 0.047
ATTGGAATTG | 1.02 ± 0.035
ATTGGAGTCG | 0.9477 ± 0.0084
ATTGGATAGG | 1.01 ± 0.012
ATTGGCAATA | 2.36 ± 1.9
ATTGGCACGC | 1.36 ± 0.42
ATTGGCAGGC | 1.05 ± 0.057
ATTGGGAGAG | 1.02 ± 0.035
ATTGGGAGC | 0.956 ± 0.015
ATTGGGATT | 0.966 ± 0.046
ATTGGGCATT | 1.018 ± 0.006
ATTGGGGAAG | 0.996 ± 0.049
ATTGGGGACT | 1.01 ± 0.019
ATTGGGGAT | 1.02 ± 0.018
ATTGGGGCCG | 1.01 ± 0.016
ATTGGGGCTG | 0.9677 ± 0.006
ATTGGGGGT | 1.026 ± 0.0062
ATTGGGGGTC | 0.995 ± 0.05
ATTGGGTAGG | 0.993 ± 0.025
ATTGGTACTT | 0.986 ± 0.058

Sequence | switch fluorescence ratio
ATTGGTATGC | 1.03 ± 0.011
ATTGGTCCTG | 0.999 ± 0.02
ATTGGTCTCA | 0.975 ± 0.023
ATTGGTTAAA | 1 ± 0.026
ATTGTAACAA | 1.037 ± 0.0089
ATTGTAAGAT | 0.994 ± 0.027
ATTGTAGGAC | 1.01 ± 0.036
ATTGTCATGT | 1.047 ± 0.0062
ATTGTCTATA | 0.981 ± 0.011
ATTGTGAGGT | 0.992 ± 0.039
ATTGTGGGTC | 1.04 ± 0.02
ATTGTGGTTT | 1.01 ± 0.034
ATTGTGTCTG | 1 ± 0.042
ATTGTTATAT | 1 ± 0.03
ATTGTTATCG | 1.02 ± 0.14
ATTGTTTAAT | 1.03 ± 0.017
ATTGTTTGAT | 1.01 ± 0.022
ATTGTTTGCA | 1.02 ± 0.056
ATTGTTTGGC | 1 ± 0.027
ATTGTTTTTA | 0.998 ± 0.033
ATTGTTTTTT | 0.995 ± 0.01
ATTTAAGTGC | 0.981 ± 0.049
ATTTAAGTTG | 0.987 ± 0.015
ATTTAATGAA | 0.982 ± 0.021
ATTTAATTCT | 0.9981 ± 0.0077
ATTTACCCTG | 1.08 ± 0.022

Sequence | switch fluorescence ratio
ATTTACGCCT | 1.12 ± 0.05
ATTTACGTAT | 1.06 ± 0.044
ATTTACGTCT | 1.04 ± 0.056
ATTTAGACTA | 1.01 ± 0.027
ATTTAGGACA | 1.01 ± 0.021
ATTTAGGCAT | 0.987 ± 0.042
ATTTAGGGGA | 1.04 ± 0.056
ATTTAGTAGT | 0.994 ± 0.057
ATTTAGTATC | 1.09 ± 0.14
ATTTAGTGTT | 1 ± 0.024
ATTTAGTTTC | 0.976 ± 0.026
ATTTATACTG | 1.05 ± 0.052
ATTTATCCAA | 1 ± 0.039
ATTTATCCAC | 1.01 ± 0.046
ATTTATCCTC | 1.05 ± 0.029
ATTTATCGCA | 1.011 ± 0.0041
ATTTATCTGA | 0.99 ± 0.016
ATTTATGAAA | 1.04 ± 0.054
ATTTATGAG | 0.977 ± 0.036
ATTTATGGGT | 0.987 ± 0.029
ATTTATGTGT | 1.01 ± 0.057
ATTTATTTAG | 0.987 ± 0.022
ATTTCACTCG | 1.01 ± 0.036
ATTTCATCGT | 1.03 ± 0.012
ATTTCCTTTG | 1.021 ± 0.006
ATTTCGGA | 0.975 ± 0.034

Sequence | switch fluorescence ratio
ATTTCGGTGC | 1.1 ± 0.17
ATTTCGGTTG | 0.989 ± 0.026
ATTTCGTCGT | 1.01 ± 0.03
ATTTCGTTGC | 1.06 ± 0.058
ATTTCTAATT | 1.07 ± 0.15
ATTTCTATTT | 1.01 ± 0.059
ATTTCTTTTG | 1.02 ± 0.056
ATTTGAAAGT | 1.02 ± 0.011
ATTTGACGGT | 1.07 ± 0.11
ATTTGACGTT | 1.003 ± 0.006
ATTTGAGGGT | 0.986 ± 0.021
ATTTGAGTAT | 1.004 ± 0.0093
ATTTGATGGG | 0.977 ± 0.03
ATTTGCCGAC | 0.975 ± 0.019
ATTTGCGGAG | 1.002 ± 0.0057
ATTTGGCCGG | 1.01 ± 0.04
ATTTGGCGCT | 0.994 ± 0.059
ATTTGGCTGT | 0.997 ± 0.023
ATTTGGGCCT | 1.02 ± 0.032
ATTTGGGCTC | 0.98 ± 0.029
ATTTGGGGAA | 0.976 ± 0.021
ATTTGGGGTA | 1.01 ± 0.024
ATTTGGGGTG | 1.016 ± 0.0069
ATTTGGGT | 0.999 ± 0.021
ATTTGGTACC | 0.977 ± 0.043
ATTTGGTATT | 0.992 ± 0.041

Sequence | switch fluorescence ratio
ATTTGGTTGT | 0.958 ± 0.021
ATTTGTCCGG | 1.007 ± 0.0081
ATTTGTTGGA | 0.989 ± 0.04
ATTTTAAAAT | 0.977 ± 0.013
ATTTTAAACG | 0.979 ± 0.021
ATTTTAAATT | 1 ± 0.019
ATTTTAAGAG | 1.01 ± 0.02
ATTTTAATTT | 1.01 ± 0.015
ATTTTAGGTC | 0.989 ± 0.025
ATTTTAGT | 1.01 ± 0.038
ATTTTATGCG | 0.985 ± 0.023
ATTTTCAATG | 1 ± 0.018
ATTTTCGACA | 1.022 ± 0.0028
ATTTTCGGGT | 0.9766 ± 0.0023
ATTTTCTGTA | 1.0017 ± 0.00088
ATTTTGAATG | 0.979 ± 0.05
ATTTTGCAGG | 0.997 ± 0.046
ATTTTGCCTT | 1 ± 0.015
ATTTTGGATG | 0.996 ± 0.025
ATTTTGGGGG | 0.988 ± 0.021
ATTTTGGTCG | 0.982 ± 0.082
ATTTTGTATT | 0.99 ± 0.034
ATTTTGTGGT | 1.01 ± 0.011
ATTTTTAGAG | 1.01 ± 0.023
ATTTTTATAA | 0.987 ± 0.025
ATTTTTCTCA | 1.04 ± 0.062

Sequence | switch fluorescence ratio
ATTTTTGAAG | 1.02 ± 0.044
ATTTTTGAAT | 1.01 ± 0.029
ATTTTTGGC | 1.03 ± 0.06
ATTTTTGGGG | 1.006 ± 0.0088
ATTTTTGTTG | 0.9883 ± 0.008
ATTTTTTAGA | 0.989 ± 0.021
ATTTTTTATT | 0.9923 ± 0.0097
ATTTTTTTTA | 0.974 ± 0.024
CAAAAACGTT | 1.02 ± 0.024
CAAAAAGGAG | 0.994 ± 0.019
CAAAACGGGG | 1.15 ± 0.18
CAAAAGATGT | 1.01 ± 0.05
CAAAAGCGAG | 1.014 ± 0.0055
CAAAAGGAGT | 0.992 ± 0.034
CAAAAGGGGG | 0.9818 ± 0.005
CAAAAGTGGG | 0.9928 ± 0.0018
CAAAATTGCC | 0.954 ± 0.11
CAAAGAAAGA | 0.991 ± 0.032
CAAAGAAAGG | 0.95 ± 0.021

— the supplement of paper PMC10126150
